The source of these data is publication PMC9481871, “Anti-TGF-β1 aptamer enhances therapeutic effect of tyrosine kinase inhibitor, gefitinib, on non-small cell lung cancer in xenograft model”.

Common to all, as to experiment: SPR; 500 nM protein; aptamer immobilized; SPR (Biacore): 145 mM NaCl, 5.4 mM KCl, 0.8 mM MgCl2, 1.8 mM CaCl2, 20 mM Tris-HCl pH 7.6, 0.05% Tween 20; temperature not given
Holding throughout (conditions): protein: recombinant; chain copies: 2
In general terms: Surface plasmon resonance follows binding to a sensor surface in real time, without labels.

One data set deals with mouse TGF-β1 (active) (Mus musculus, UniProt P04202 279-390).
Chain of mouse TGF-β1 (active) (P04202 279-390): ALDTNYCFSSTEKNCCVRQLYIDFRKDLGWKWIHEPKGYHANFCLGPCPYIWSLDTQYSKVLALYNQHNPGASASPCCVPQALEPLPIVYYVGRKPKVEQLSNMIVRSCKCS
The target of another data set is T1, human TGF-β2 (Homo sapiens, UniProt P61812 303-414).
T1 sequence: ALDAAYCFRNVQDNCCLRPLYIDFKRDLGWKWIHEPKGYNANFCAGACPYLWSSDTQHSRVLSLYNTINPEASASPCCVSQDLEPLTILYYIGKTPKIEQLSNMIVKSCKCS

For another data set, the target named is T2, human TGF-β3 (Homo sapiens, UniProt P10600 301-412).
T2 sequence: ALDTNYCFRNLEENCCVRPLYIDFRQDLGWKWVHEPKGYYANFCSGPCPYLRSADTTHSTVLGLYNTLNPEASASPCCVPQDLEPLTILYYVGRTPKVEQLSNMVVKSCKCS

The next data set deals with human TGF-β1 (active) (Homo sapiens, UniProt P01137 279-390).
Chain of human TGF-β1 (active) (P01137 279-390): as the sequence (P04202 279-390) above, with S75A counted along it

B1: APT-β1 (structured_RNA)
RNA: GGCAUAAGGGAGGGGAGACUUGUGGAGGGCAAG
modifications: 2'-fluoro pyrimidines (SELEX with 2'-F-CTP and 2'-F-UTP); parent of APT-β1-OMe without 2'-OMe
As for B1, the binding result is “binds” with mouse TGF-β1 (active), “no binding” with human TGF-β2, “no binding” with human TGF-β3 and “binds” with human TGF-β1 (active).
